Test results reported in PMC4666130 (Molecular Biology of the Cell, 2015).

Biological target: T1, claudin-19 (human CLDN19), expressed in HEK293 cells (human, UniProt Q8N6F1 1-224)
T1 sequence (looked up): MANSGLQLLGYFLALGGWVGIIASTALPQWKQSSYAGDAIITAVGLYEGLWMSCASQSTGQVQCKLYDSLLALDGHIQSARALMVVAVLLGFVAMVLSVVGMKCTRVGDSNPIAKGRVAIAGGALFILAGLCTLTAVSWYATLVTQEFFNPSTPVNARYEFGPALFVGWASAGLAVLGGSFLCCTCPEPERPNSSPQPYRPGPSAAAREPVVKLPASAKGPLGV
Assay: cross-linking

B1: claudin-16 (human CLDN16), expressed in HEK293 cells (natural protein, UniProt Q9Y5I7 1-235, looked up)
chain: MRDLLQYIACFFAFFSAGFLIVATWTDCWMVNADDSLEVSTKCRGLWWECVTNAFDGIRTCDEYDSILAEHPLKLVVTRALMITADILAGFGFLTLLLGLDCVKFLPDEPYIKVRICFVAGATLLIAGTPGIIGSVWYAVDVYVERSTLVLHNIFLGIQYKFGWSCWLGMAGSLGCFLAGAVLTCCLYLFKDVGPERNYPYSLRKAYSAAGVSMAKSYSAPRTETAKMYAVDTRV
In the case of B1, the “stoichiometry N” value is reported as 1 claudin-16 per claudin-19.
